# B1: His6-SipA^1-242 (domain or fragment)
# chain: MVTSVRTQPPVIMPGMQTEIKTQATNLAANLSAVRESATATLSGEIKGPQLEDFPALIKQASLDALFKCGKDAEALKEVFTNSNNVAGKKAIMEFAGLFRSALNATSDSPEAKTLLMKVGAEYTAQIIKDGLKEKSAFGPWLPETKKAEAKLENLEKQLLDIIKNNTGGELSKLSTNLVMQEVMPYIASCIEHNFGCTLDPLTRSNLTHLVDKAAAKAVEALDMCHQKLTQEQGTSVGREAR
# Target: the molecule itself
# Test: nonreducing SDS-PAGE
protein,measurement,value
B1,binding result,binds

# Source: article PMC6279372 (The Journal of Cell Biology, 2018)
